Peptide exchange yield data for 49 molecules are collected here from patent US20170096461A1 (IMMATICS BIOTECHNOLOGIES, published 2017).

The experiment deals with T1, HLA-A*02:01 (peptide-receptive MHC class I monomer after UV-ligand exchange) (human).
T1 construct: Monomers made with a UV-sensitive peptide that is cleaved by UV and exchanged for the test peptide; captured on streptavidin plates; also called MHC molecules
Kind of experiment: UV-ligand exchange + anti-b2m ELISA; exchange yield grade: + >=10%, ++ >=20%, +++ >=50, ++++ >=75%. From the text:
Candidate peptides for T cell based therapies according to the present invention were further tested for their MHC binding capacity (affinity). The individual peptide-MHC complexes were produced by UV-ligand exchange, where a UV-sensitive peptide is cleaved upon UV-irradiation, and exchanged with the peptide of interest as analyzed. Only peptide candidates that can effectively bind and stabilize the peptide-receptive MHC molecules prevent dissociation of the MHC complexes. To determine the yield of the exchange reaction, an ELISA was performed based on the detection of the light chain (β2m) of stabilized MHC complexes. The assay was performed as generally described in Rodenko et al. (Rodenko et al., 2006).
96 well MAXISorp plates (NUNC) were coated over night with 2 ug/ml streptavidin in PBS at room temperature, washed 4× and blocked for 1 h at 37° C. in 2% BSA containing blocking buffer. Refolded HLA-A*02:01/MLA-001 monomers served as standards, covering the range of 15-500 ng/ml. Peptide-MHC monomers of the UV-exchange reaction were diluted 100 fold in blocking buffer. Samples were incubated for 1 h at 37° C., washed four times, incubated with 2 ug/ml HRP conjugated anti-β2m for 1 h at 37° C., washed again and detected with TMB solution that is stopped with […]. Absorption was measured at 450 nm. Candidate peptides that show a high exchange yield (preferably higher than 50%, most preferred higher than 75%) are generally preferred for a generation and production of antibodies or fragments thereof, and/or T cell receptors or fragments thereof, as they show sufficient avidity to the MHC molecules and prevent dissociation of the MHC complexes.
A general note: An ELISA detects its analyte on a solid surface through an enzyme-linked reagent.
Turning to FLTAFLVQI [peptide FLTAFLVQI (SEQ ID NO: 13)], the peptide exchange yield lay within 50 to 75%. On to SMMPDELLTSL [peptide SMMPDELLTSL (SEQ ID NO: 122)], for which the peptide exchange yield fell in the range of 50 to 75%. With FLMEEVHMI [peptide FLMEEVHMI (SEQ ID NO: 24)] the figure was 50 to 75%; with RMDGAVTSV [peptide RMDGAVTSV (SEQ ID NO: 36)], 50 to 75%; with LLSEPSLLRTV [peptide LLSEPSLLRTV (SEQ ID NO: 125)], 50 to 75%. SLFERLVVL [peptide SLFERLVVL (SEQ ID NO: 109)]: the peptide exchange yield was not below 75%.

For the molecule LLPEKSWEI [peptide LLPEKSWEI (SEQ ID NO: 22)], the peptide exchange yield was 50 to 75%. With KMLGLTVSL [peptide KMLGLTVSL (SEQ ID NO: 30)] the figure was 50 to 75%; with FLPEAPAEL [peptide FLPEAPAEL (SEQ ID NO: 111)], 50 to 75%; with MLDEILLQL [peptide MLDEILLQL (SEQ ID NO: 20)], 50 to 75%. As to VMFNFPDQATV [peptide VMFNFPDQATV (SEQ ID NO: 2)], the peptide exchange yield is 50 to 75%. Consider SLLTAISEV [peptide SLLTAISEV (SEQ ID NO: 15)], for which the peptide exchange yield fell in the range of 50 to 75%. In the case of VILDLPLVI [peptide VILDLPLVI (SEQ ID NO: 16)] it was 50 to 75%; in that of SLAADIPRL [peptide SLAADIPRL (SEQ ID NO: 120)], 50 to 75%; in that of GLTETGLYRI [peptide GLTETGLYRI (SEQ ID NO: 110)], 50 to 75%.

As for ILVSQLEQL [peptide ILVSQLEQL (SEQ ID NO: 28)], the peptide exchange yield was not below 75%. As for ALTSLELEL [peptide ALTSLELEL (SEQ ID NO: 32)], the peptide exchange yield was 50 to 75%. For the molecule GLDPTQFRV [peptide GLDPTQFRV (SEQ ID NO: 39)], the peptide exchange yield lay in the range of 50 to 75%. As for ALLVRLQEV [peptide ALLVRLQEV (SEQ ID NO: 116)], the peptide exchange yield was not below 75%.

Take FMGDVFINV [peptide FMGDVFINV (SEQ ID NO: 35)]: the peptide exchange yield is not below 75%. With SMYDKVLML [peptide SMYDKVLML (SEQ ID NO: 105)] the figure was not below 75%; with KLPSFLANV [peptide KLPSFLANV (SEQ ID NO: 118)], 50 to 75%. With KLDKNPNQV [peptide KLDKNPNQV (SEQ ID NO: 123)] the figure was 50 to 75%; with YMLEHVITL [peptide YMLEHVITL (SEQ ID NO: 121)], 50 to 75%. In the case of AAASLIRLV [peptide AAASLIRLV (SEQ ID NO: 126)], the peptide exchange yield is 10 to 20%. With ALLPSDCLQEA [peptide ALLPSDCLQEA (SEQ ID NO: 115)] the figure was 50 to 75%; with YQIDTVINL [peptide YQIDTVINL (SEQ ID NO: 23)], 50 to 75%; with FLLDSAPLNV [peptide FLLDSAPLNV (SEQ ID NO: 117)], not below 75%. With VLLTTAVEV [peptide VLLTTAVEV (SEQ ID NO: 19)] the figure was 50 to 75%; with AMLEEVNYI [peptide AMLEEVNYI (SEQ ID NO: 1)], 50 to 75%. For the molecule VLAEIDPKQLV [peptide VLAEIDPKQLV (SEQ ID NO: 3)], the peptide exchange yield lay in the range of 50 to 75%. For ILIETKLVL [peptide ILIETKLVL (SEQ ID NO: 14)], the peptide exchange yield was in the range of 50 to 75%. In the case of LLLPGVIKTV [peptide LLLPGVIKTV (SEQ ID NO: 112)] it was 50 to 75%; in that of KMPDDVWLV [peptide KMPDDVWLV (SEQ ID NO: 106)], not below 75%; in that of TMEEMIFEV [peptide TMEEMIFEV (SEQ ID NO: 21)], 50 to 75%.

On to SLDIITITV [peptide SLDIITITV (SEQ ID NO: 27)], for which the peptide exchange yield was not below 75%.

On to AMYGTKLETI [peptide AMYGTKLETI (SEQ ID NO: 107)], for which the peptide exchange yield is not below 75%. For the molecule ALGEISVSV [peptide ALGEISVSV (SEQ ID NO: 18)], the peptide exchange yield was in the range of 50 to 75%. In the case of GLISSLNEI [peptide GLISSLNEI (SEQ ID NO: 38)] it was not below 75%; in that of ALLEPGGVLTI [peptide ALLEPGGVLTI (SEQ ID NO: 114)], 50 to 75%; in that of SLMLVTVEL [peptide SLMLVTVEL (SEQ ID NO: 17)], 50 to 75%. In the case of KMLDEAVFQV [peptide KMLDEAVFQV (SEQ ID NO: 26)] it was not below 75%; in that of MLFEGLDLVSA [peptide MLFEGLDLVSA (SEQ ID NO: 12)], 50 to 75%. With GLSETILAV [peptide GLSETILAV (SEQ ID NO: 25)] the figure was not below 75%. On to SLFYNELHYV [peptide SLFYNELHYV (SEQ ID NO: 37)], for which the peptide exchange yield is 50 to 75%. With SLITDLQTI [peptide SLITDLQTI (SEQ ID NO: 124)] the figure was 50 to 75%; with RLLQDPVGV [peptide RLLQDPVGV (SEQ ID NO: 31)], not below 75%; with ILLDDQFQPKL [peptide ILLDDQFQPKL (SEQ ID NO: 108)], not below 75%. In the case of LVFEGIMEV [peptide LVFEGIMEV (SEQ ID NO: 34)] it was 50 to 75%.
